Results as given in article PMC9800333, “Determinants of receptor tyrosine phosphatase homophilic adhesion: Structural comparison of PTPRK and PTPRM extracellular domains” (The Journal of Biological Chemistry, 2022).

Target: the molecule itself
Experiment: SEC-MALS; pH 8: 100 ul at 1 mg/ml on Superdex 200 Increase 10/300 GL in 100 mM Tris-HCl, pH 8, 250 mM NaCl; protein conjugate analysis for glycans; dimer to monomers

Row | Protein | stoichiometry N | binding result
1 | PTPRK MAM-Ig-FN1 domains (domain or fragment, human, UniProt Q15262-3 28-385, looked up, native N-linked glycans (no deglycosylation); glycans seen in the structure at N101, N140 and N211, human PTPRK, N-terminal MAM, Ig and first FN domains, residues 28-385; numbers count on: UniProt Q15262-3; Cloned into pHLSec (AgeI/KpnI) in frame with the vector's N-terminal secretion signal; also called PTPRK-MIFN1; MIFN1) QGQFSAGGCTFDDGPGACDYHQDLYDDFEWVHVSAQEPHYLPPEMPQGSYMIVDSSDHDPGEKARLQLPTMKENDTHCIDFSYLLYSQKGLNPGTLNILVRVNKGPLANPIWNVTGFTGRDWLRAELAVSTFWPNEYQVIFEAEVSGGRSGYIAIDDIQVLSYPCDKSPHFLRLGDVEVNAGQNATFQCIATGRDAVHNKLWLQRRNGEDIPVAQTKNINHRRFAASFRLQEVTKTDQDLYRCVTQSERGSGVSNFAQLIVREPPRPIAPPQLLGVGPTYLLIQLNANSIIGDGPIILKEVEYRMTSGSWTETHAVNAPTYKLWHLDPDTEYEIRVLLTRPGEGGTGLPGPPLITRTK | 2 | 
2 | PTPRK-MIFN1.W351G (domain or fragment, human, UniProt Q15262-3 28-385, looked up, human PTPRK, MAM-Ig-FN1 domains, residues 28-385, with W351G; numbers count on: UniProt Q15262-3; PDB 8A1F is the wild-type parent; also called W315G mutant form of PTPRK-MIFN1; source: expressed and purified (as PTPRK-MIFN1: human embryonic kidney-293F cells, nickel-nitrilotriacetic acid agarose, SEC)) QGQFSAGGCTFDDGPGACDYHQDLYDDFEWVHVSAQEPHYLPPEMPQGSYMIVDSSDHDPGEKARLQLPTMKENDTHCIDFSYLLYSQKGLNPGTLNILVRVNKGPLANPIWNVTGFTGRDWLRAELAVSTFWPNEYQVIFEAEVSGGRSGYIAIDDIQVLSYPCDKSPHFLRLGDVEVNAGQNATFQCIATGRDAVHNKLWLQRRNGEDIPVAQTKNINHRRFAASFRLQEVTKTDQDLYRCVTQSERGSGVSNFAQLIVREPPRPIAPPQLLGVGPTYLLIQLNANSIIGDGPIILKEVEYRMTSGSWTETHAVNAPTYKLGHLDPDTEYEIRVLLTRPGEGGTGLPGPPLITRTK |  | binds
3 | full-length PTPRK extracellular domain (domain or fragment, human, UniProt Q15262-3 28-752, looked up, native N-linked glycans (no deglycosylation), human PTPRK, full extracellular domain (MAM, Ig, FN1-4), residues 28-752; numbers count on: UniProt Q15262-3; Cloned into pHLSec (AgeI/KpnI) in frame with the vector's N-terminal secretion signal; The C-terminal His6 tag was included in the SAXS models; also called PTPRK-ECD; PTPRK full ECD; not shown: Lys-His6, C-terminal, kept) QGQFSAGGCTFDDGPGACDYHQDLYDDFEWVHVSAQEPHYLPPEMPQGSYMIVDSSDHDPGEKARLQLPTMKENDTHCIDFSYLLYSQKGLNPGTLNILVRVNKGPLANPIWNVTGFTGRDWLRAELAVSTFWPNEYQVIFEAEVSGGRSGYIAIDDIQVLSYPCDKSPHFLRLGDVEVNAGQNATFQCIATGRDAVHNKLWLQRRNGEDIPVAQTKNINHRRFAASFRLQEVTKTDQDLYRCVTQSERGSGVSNFAQLIVREPPRPIAPPQLLGVGPTYLLIQLNANSIIGDGPIILKEVEYRMTSGSWTETHAVNAPTYKLWHLDPDTEYEIRVLLTRPGEGGTGLPGPPLITRTKCAEPMRTPKTLKIAEIQARRIAVDWESLGYNITRCHTFNVTICYHYFRGHNESKADCLDMDPKAPQHVVNHLPPYTNVSLKMILTNPEGRKESEETIIQTDEDVPGPVPVKSLQGTSFENKIFLNWKEPLDPNGIITQYEISYSSIRSFDPAVPVAGPPQTVSNLWNSTHHVFMHLHPGTTYQFFIRASTVKGFGPATAINVTTNISAPTLPDYEGVDASLNETATTITVLLRPAQAKGAPISAYQIVVEELHPHRTKREAGAMECYQVPVTYQNAMSGGAPYYFAAELPPGNLPEPAPFTVGDNRTYQGFWNPPLAPRKGYNIYFQAMSSVEKETKTQCVRIATKAAATEEPEVIPDPAKQTDRVV | 2 | 
